The source of these data is paper PMC4856222.

The target in assay [1] is NKG2D (in the affinity measurement) (UniProt O54709).
Assay [2] has as its target NKG2D (Homo sapiens) (UniProt P26718). To be noted: cited from earlier work.
Assay [3] shares this target. To be noted: cited from earlier work. This is another data set of the same source.

Read-outs that look alike come from different tables or passages of the source.

Sequence of UniProt O54709 (O54709 whole entry): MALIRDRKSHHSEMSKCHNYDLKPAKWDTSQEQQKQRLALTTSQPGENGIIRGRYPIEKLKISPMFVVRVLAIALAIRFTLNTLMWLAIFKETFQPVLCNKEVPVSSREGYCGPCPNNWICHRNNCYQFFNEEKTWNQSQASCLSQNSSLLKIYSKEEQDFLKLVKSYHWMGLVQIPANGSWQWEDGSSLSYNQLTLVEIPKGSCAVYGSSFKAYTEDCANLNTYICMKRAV
Sequence of UniProt P26718 (P26718 whole entry): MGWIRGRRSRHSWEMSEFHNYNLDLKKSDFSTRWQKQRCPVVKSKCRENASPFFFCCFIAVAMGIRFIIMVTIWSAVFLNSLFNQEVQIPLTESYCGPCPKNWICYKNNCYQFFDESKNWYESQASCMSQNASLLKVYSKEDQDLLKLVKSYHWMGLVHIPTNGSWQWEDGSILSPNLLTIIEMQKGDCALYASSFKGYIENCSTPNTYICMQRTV

“secMULT1 (secreted ectodomain fragment of HA-MULT1) (domain or fragment)” registered a Kd in assay [1] of 19 nM.
The substance shed HA-MULT1 (domain or fragment) gave a dissociation constant (Kd) in assay [1] of 13 nM.
Turning to MICA (from UniProt Q29983), in the assay with NKG2D (Homo sapiens) [2], the Kd is 1000 nM.
Consider MICB (from UniProt Q29980), for which the Kd in the assay with NKG2D (Homo sapiens) [3] was 1000 nM.
